The record followed here is paper PMC8782398.

“And” between values parts separate entries of the source, which are not always exact repeats. Identical values can stand only once.

Experiment [1] deals with human KOP receptor in CHO cells (human), P41145. The experiment is described as follows: radioligand binding.
Experiment [2] addresses human MOP receptor in HEK293 cells (human), P35372. Description: radioligand binding.
Experiment [3] deals with T1, human mu opioid peptide (MOP) receptor in CHO cells (human), P35372. The experiment is described as follows: radioligand binding.
Experiment [4] addresses T2, human delta opioid peptide (DOP) receptor in CHO cells (human), P41143.
T2 chain: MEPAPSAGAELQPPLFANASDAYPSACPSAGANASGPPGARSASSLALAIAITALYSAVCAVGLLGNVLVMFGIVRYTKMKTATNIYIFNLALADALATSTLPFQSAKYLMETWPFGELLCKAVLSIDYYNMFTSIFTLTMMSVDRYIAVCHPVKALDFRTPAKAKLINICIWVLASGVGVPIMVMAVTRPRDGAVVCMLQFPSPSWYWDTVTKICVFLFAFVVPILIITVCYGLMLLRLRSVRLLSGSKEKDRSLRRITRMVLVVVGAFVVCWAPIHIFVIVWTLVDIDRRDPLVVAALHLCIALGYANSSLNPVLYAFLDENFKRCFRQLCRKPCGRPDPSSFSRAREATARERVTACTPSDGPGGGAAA
Description: radioligand binding.

In experiment [5] the target is T1, human mu opioid peptide (MOP) receptor ….
Experiment [6] concerns the target human MOP receptor in HEK293 cells (human), P35372.

Sequence of human MOP receptor in HEK293 cells (human), P35372 (P35372 whole entry): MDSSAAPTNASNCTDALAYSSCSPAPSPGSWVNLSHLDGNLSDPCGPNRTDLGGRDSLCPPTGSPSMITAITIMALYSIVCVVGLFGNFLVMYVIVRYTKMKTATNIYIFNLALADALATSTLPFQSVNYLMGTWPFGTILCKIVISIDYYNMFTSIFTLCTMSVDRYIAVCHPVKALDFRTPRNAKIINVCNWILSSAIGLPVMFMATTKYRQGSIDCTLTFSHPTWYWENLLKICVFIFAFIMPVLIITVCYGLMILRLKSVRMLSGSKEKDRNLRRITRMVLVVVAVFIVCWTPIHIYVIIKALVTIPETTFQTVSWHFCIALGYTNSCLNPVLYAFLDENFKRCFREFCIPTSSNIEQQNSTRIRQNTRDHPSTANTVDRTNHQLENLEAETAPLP
T1 sequence (P35372 whole entry): as above
Sequence of human KOP receptor in CHO cells (human), P41145 (P41145 whole entry): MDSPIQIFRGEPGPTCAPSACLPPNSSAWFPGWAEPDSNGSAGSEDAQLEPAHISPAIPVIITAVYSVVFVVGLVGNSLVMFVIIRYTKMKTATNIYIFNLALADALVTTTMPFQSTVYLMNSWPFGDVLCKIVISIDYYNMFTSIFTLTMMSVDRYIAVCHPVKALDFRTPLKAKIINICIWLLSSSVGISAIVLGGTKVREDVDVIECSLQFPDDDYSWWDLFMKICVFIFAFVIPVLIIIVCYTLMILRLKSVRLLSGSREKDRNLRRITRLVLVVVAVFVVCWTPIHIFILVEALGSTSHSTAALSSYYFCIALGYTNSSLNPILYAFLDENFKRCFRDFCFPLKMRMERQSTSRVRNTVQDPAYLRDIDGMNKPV

B1: Dermorphin-UFP101 (De101) (peptide)
chain 1: YAFGYPS
chain 2: FGGFTGARKSARKRKNQC
modifications: not checked
Turning to B1, the other in experiment [1] was 7.61; in experiment [2] it was 9.28 and 8.63; in experiment [3] it was 9.64; in experiment [4] it was 7.95. The GTPγ[35S] binding, CHOMOP membranes: maximal response (stimulation factor) (stimulation factor) in experiment [5] was determined as 2.71. The GTPγ[35S] binding, HEKMOP membranes: Emax (stimulation factor) (stimulation factor) in experiment [6] is 1.44. For the same molecule, the inhibition of forskolin-stimulated cAMP formation, HEKMOP cells: Emax (% inhibition) in experiment [6] was determined as 73.3%.

B2: Dermorphin-Nociceptin/Orphanin FQ (DeNO) (peptide)
chain 1: YAFGYPS
chain 2: FGGFTGARKSARKLANQC
modifications: not checked
Turning to B2, in experiment [2], the other was 9 and 8.44. In experiment [6], this molecule showed a GTPγ[35S] binding, HEKMOP membranes: Emax (stimulation factor) (stimulation factor) of 1.53 and an inhibition of forskolin-stimulated cAMP formation, HEKMOP cells: Emax (% inhibition) of 77.3%.
In experiment [5], YAFGYPS (modifications not checked) [Dermorphin] had a GTPγ[35S] binding, CHOMOP membranes: maximal response (stimulation factor) (stimulation factor) of 2.63. In experiment [6], this molecule came in with a GTPγ[35S] binding, HEKMOP membranes: Emax (stimulation factor) (stimulation factor) of 1.43 and an inhibition of forskolin-stimulated cAMP formation, HEKMOP cells: Emax (% inhibition) of 75.6%.
